Our source for the Kd values is patent US20220002395A1 (FAPON BIOTECH, published 2022).

First the molecules themselves.
T1: Plasmodium falciparum histidine-rich protein II (HRP-II) (Plasmodium falciparum, UniProt P05227 22-332)
T1 construct: Coating antigen of all ELISAs; also called HRP-II protein; MA-HRPII Ag protein
T1 sequence (looked up): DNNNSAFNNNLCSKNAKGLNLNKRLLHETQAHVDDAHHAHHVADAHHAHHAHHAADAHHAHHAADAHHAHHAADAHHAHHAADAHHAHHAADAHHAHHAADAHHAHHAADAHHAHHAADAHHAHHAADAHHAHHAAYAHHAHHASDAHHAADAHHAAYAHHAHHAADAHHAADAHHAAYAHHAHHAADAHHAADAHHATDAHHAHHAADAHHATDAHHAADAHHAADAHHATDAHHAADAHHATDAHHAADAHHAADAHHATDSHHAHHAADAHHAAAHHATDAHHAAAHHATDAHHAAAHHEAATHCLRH

B1: Mutation 1-3 (antibody, mouse IgG2b, kappa, V domains shown)
VH: EVQLQQSGPEVVKPGASVKISCKASGYTITDYYMNWVKQSHGKGLEWIGDLNPINGGTAYQQKFRDKATLTVDKSSNTAYMELRSLTSEDSALYYCTRGAEDYWGQGTTLTVSS
VL: DVVLTQTPLSLSVTIGQPASISCKSSQSIIYSNGKIYLNWFQQRPGQSPKRLMYQLSKLEPGIPDRFSGSGSETDFTLKISRVEAEDLGVYYCLQGTYSPQTFGGGTKLEIKR
notes: Mutation 1 as framework
B2: Mutation 1-5 (antibody, mouse IgG2b, kappa, V domains shown)
VH: EVQLQQSGPEVVKPGASVKISCKASGSTLTDYYMNWVKQSHGKGLEWIGDVNPINGGTAYNQKFRDKATLTVDKSSNTAYMELRSLTSEDSALYYCTRGAEDYWGQGTTLTVSS
VL: DVVLTQTPLSLSVTIGQPASISCKSSQSILYSQGKIYLNWFQQRPGQSPKRLMYQVSKLEPGIPDRFSGSGSETDFTLKISRVEAEDLGVYYCLQGTYTPQTFGGGTKLEIKR
notes: Mutation 1 as framework
B3: Mutation 1-1 (antibody, mouse IgG2b, kappa, V domains shown)
VH: EVQLQQSGPEVVKPGASVKISCKASGYTITDYYMNWVKQSHGKGLEWIGDINPIQGGTAYNQKFRDKATLTVDKSSNTAYMELRSLTSEDSALYYCTRGAEDYWGQGTTLTVSS
VL: DVVLTQTPLSLSVTIGQPASISCKSSQSIIYSQGKIYLNWFQQRPGQSPKRLMYQISKLEPGIPDRFSGSGSETDFTLKISRVEAEDLGVYYCLQGTYYPQTFGGGTKLEIKR
notes: Mutation 1 as framework
B4: Mutation 1-4 (antibody, mouse IgG2b, kappa, V domains shown)
VH: EVQLQQSGPEVVKPGASVKISCKASGYTLTDYYMNWVKQSHGKGLEWIGDINPINGGTAYQQKFRDKATLTVDKSSNTAYMELRSLTSEDSALYYCTKGAEDYWGQGTTLTVSS
VL: DVVLTQTPLSLSVTIGQPASISCKSSQSILYSNGKIYLNWFQQRPGQSPKRLMYQVSKLDPGIPDRFSGSGSETDFTLKISRVEAEDLGVYYCLQATYYPQTFGGGTKLEIKR
notes: Mutation 1 as framework
B5: Mutation 1-6 (antibody, mouse IgG2b, kappa, V domains shown)
VH: EVQLQQSGPEVVKPGASVKISCKASGYTITDYYMNWVKQSHGKGLEWIGDLNPIQGGTAYNQKFRDKATLTVDKSSNTAYMELRSLTSEDSALYYCTKGAEDYWGQGTTLTVSS
VL: DVVLTQTPLSLSVTIGQPASISCKSSQSLIYSNGKIYLNWFQQRPGQSPKRLMYQISKLDPGIPDRFSGSGSETDFTLKISRVEAEDLGVYYCLQATYSPQTFGGGTKLEIKR
notes: Mutation 1 as framework
B6: Mutation 1-2 (antibody, mouse IgG2b, kappa, V domains shown)
VH: EVQLQQSGPEVVKPGASVKISCKASGSTLTDYYMNWVKQSHGKGLEWIGDVNPIQGGTAYQQKFRDKATLTVDKSSNTAYMELRSLTSEDSALYYCTKGAEDYWGQGTTLTVSS
VL: DVVLTQTPLSLSVTIGQPASISCKSSQSLLYSNGKIYLNWFQQRPGQSPKRLMYQLSKLDPGIPDRFSGSGSETDFTLKISRVEAEDLGVYYCLQATYTPQTFGGGTKLEIKR
notes: Mutation 1 as framework
B7: Mutation 1-30 (antibody, mouse IgG2b, kappa, V domains shown)
VH: EVQLQQSGPEVVKPGASVKISCKASGSTLTDYYMNWVKQSHGKGLEWIGDLNPIQGGTAYNQKFRDKATLTVDKSSNTAYMELRSLTSEDSALYYCTKGAEDYWGQGTTLTVSS
VL: DVVLTQTPLSLSVTIGQPASISCKSSQSIIYSNGKIYLNWFQQRPGQSPKRLMYQISKLDPGIPDRFSGSGSETDFTLKISRVEAEDLGVYYCLQATYSPQTFGGGTKLEIKR
notes: Mutation 1 as framework
B8: Mutation 1-9 (antibody, mouse IgG2b, kappa, V domains shown)
VH: EVQLQQSGPEVVKPGASVKISCKASGYTLTDYYMNWVKQSHGKGLEWIGDLNPIQGGTAYNQKFRDKATLTVDKSSNTAYMELRSLTSEDSALYYCTRGAEDYWGQGTTLTVSS
VL: DVVLTQTPLSLSVTIGQPASISCKSSQSIIYSQGKIYLNWFQQRPGQSPKRLMYQLSKLEPGIPDRFSGSGSETDFTLKISRVEAEDLGVYYCLQGTYSPQTFGGGTKLEIKR
notes: Mutation 1 as framework
B9: Mutation 1-44 (antibody, mouse IgG2b, kappa, V domains shown)
VH: EVQLQQSGPEVVKPGASVKISCKASGYTITDYYMNWVKQSHGKGLEWIGDVNPINGGTAYQQKFRDKATLTVDKSSNTAYMELRSLTSEDSALYYCTRGAEDYWGQGTTLTVSS
VL: DVVLTQTPLSLSVTIGQPASISCKSSQSILYSNGKIYLNWFQQRPGQSPKRLMYQLSKLDPGIPDRFSGSGSETDFTLKISRVEAEDLGVYYCLQATYSPQTFGGGTKLEIKR
notes: Mutation 1 as framework
B10: Mutation 1-36 (antibody, mouse IgG2b, kappa, V domains shown)
VH: EVQLQQSGPEVVKPGASVKISCKASGTTLTDYYMNWVKQSHGKGLEWIGDLNPIQGGTAYNQKFRDKATLTVDKSSNTAYMELRSLTSEDSALYYCTRGAEDYWGQGTTLTVSS
VL: DVVLTQTPLSLSVTIGQPASISCKSSQSLLYSNGKIYLNWFQQRPGQSPKRLMYQISKLDPGIPDRFSGSGSETDFTLKISRVEAEDLGVYYCLQGTYSPQTFGGGTKLEIKR
notes: Mutation 1 as framework
B11: Mutation 1-40 (antibody, mouse IgG2b, kappa, V domains shown)
VH: EVQLQQSGPEVVKPGASVKISCKASGTTLTDYYMNWVKQSHGKGLEWIGDINPINGGTAYQQKFRDKATLTVDKSSNTAYMELRSLTSEDSALYYCTRGAEDYWGQGTTLTVSS
VL: DVVLTQTPLSLSVTIGQPASISCKSSQSILYSNGKIYLNWFQQRPGQSPKRLMYQLSKLDPGIPDRFSGSGSETDFTLKISRVEAEDLGVYYCLQGTYTPQTFGGGTKLEIKR
notes: Mutation 1 as framework
B12: Mutation 1-42 (antibody, mouse IgG2b, kappa, V domains shown)
VH: EVQLQQSGPEVVKPGASVKISCKASGYTITDYYMNWVKQSHGKGLEWIGDLNPINGGTAYQQKFRDKATLTVDKSSNTAYMELRSLTSEDSALYYCTRGAEDYWGQGTTLTVSS
VL: DVVLTQTPLSLSVTIGQPASISCKSSQSILYSNGKIYLNWFQQRPGQSPKRLMYQISKLDPGIPDRFSGSGSETDFTLKISRVEAEDLGVYYCLQGTYSPQTFGGGTKLEIKR
notes: Mutation 1 as framework
B13: Mutation 1-24 (antibody, mouse IgG2b, kappa, V domains shown)
VH: EVQLQQSGPEVVKPGASVKISCKASGTTLTDYYMNWVKQSHGKGLEWIGDLNPIQGGTAYQQKFRDKATLTVDKSSNTAYMELRSLTSEDSALYYCTKGAEDYWGQGTTLTVSS
VL: DVVLTQTPLSLSVTIGQPASISCKSSQSIIYSNGKIYLNWFQQRPGQSPKRLMYQISKLDPGIPDRFSGSGSETDFTLKISRVEAEDLGVYYCLQATYSPQTFGGGTKLEIKR
notes: Mutation 1 as framework
B14: Mutation 1-38 (antibody, mouse IgG2b, kappa, V domains shown)
VH: EVQLQQSGPEVVKPGASVKISCKASGTTLTDYYMNWVKQSHGKGLEWIGDVNPIQGGTAYQQKFRDKATLTVDKSSNTAYMELRSLTSEDSALYYCTRGAEDYWGQGTTLTVSS
VL: DVVLTQTPLSLSVTIGQPASISCKSSQSLLYSNGKIYLNWFQQRPGQSPKRLMYQLSKLDPGIPDRFSGSGSETDFTLKISRVEAEDLGVYYCLQGTYSPQTFGGGTKLEIKR
notes: Mutation 1 as framework
B15: Mutation 1-27 (antibody, mouse IgG2b, kappa, V domains shown)
VH: EVQLQQSGPEVVKPGASVKISCKASGTTLTDYYMNWVKQSHGKGLEWIGDLNPINGGTAYQQKFRDKATLTVDKSSNTAYMELRSLTSEDSALYYCTKGAEDYWGQGTTLTVSS
VL: DVVLTQTPLSLSVTIGQPASISCKSSQSIIYSNGKIYLNWFQQRPGQSPKRLMYQLSKLEPGIPDRFSGSGSETDFTLKISRVEAEDLGVYYCLQGTYSPQTFGGGTKLEIKR
notes: Mutation 1 as framework
B16: Mutation 1-52 (antibody, mouse IgG2b, kappa, V domains shown)
VH: EVQLQQSGPEVVKPGASVKISCKASGTTLTDYYMNWVKQSHGKGLEWIGDINPIQGGTAYQQKFRDKATLTVDKSSNTAYMELRSLTSEDSALYYCTRGAEDYWGQGTTLTVSS
VL: DVVLTQTPLSLSVTIGQPASISCKSSQSIIYSNGKIYLNWFQQRPGQSPKRLMYQVSKLDPGIPDRFSGSGSETDFTLKISRVEAEDLGVYYCLQATYYPQTFGGGTKLEIKR
notes: Mutation 1 as framework
B17: Mutation 1-51 (antibody, mouse IgG2b, kappa, V domains shown)
VH: EVQLQQSGPEVVKPGASVKISCKASGSTLTDYYMNWVKQSHGKGLEWIGDLNPINGGTAYQQKFRDKATLTVDKSSNTAYMELRSLTSEDSALYYCTKGAEDYWGQGTTLTVSS
VL: DVVLTQTPLSLSVTIGQPASISCKSSQSLLYSNGKIYLNWFQQRPGQSPKRLMYQLSKLEPGIPDRFSGSGSETDFTLKISRVEAEDLGVYYCLQGTYYPQTFGGGTKLEIKR
notes: Mutation 1 as framework
B18: Mutation 1-12 (antibody, mouse IgG2b, kappa, V domains shown)
VH: EVQLQQSGPEVVKPGASVKISCKASGYTITDYYMNWVKQSHGKGLEWIGDLNPINGGTAYNQKFRDKATLTVDKSSNTAYMELRSLTSEDSALYYCTRGAEDYWGQGTTLTVSS
VL: DVVLTQTPLSLSVTIGQPASISCKSSQSILYSNGKIYLNWFQQRPGQSPKRLMYQISKLDPGIPDRFSGSGSETDFTLKISRVEAEDLGVYYCLQGTYSPQTFGGGTKLEIKR
notes: Mutation 1 as framework
B19: Mutation 1-34 (antibody, mouse IgG2b, kappa, V domains shown)
VH: EVQLQQSGPEVVKPGASVKISCKASGTTLTDYYMNWVKQSHGKGLEWIGDINPINGGTAYQQKFRDKATLTVDKSSNTAYMELRSLTSEDSALYYCTRGAEDYWGQGTTLTVSS
VL: DVVLTQTPLSLSVTIGQPASISCKSSQSLLYSNGKIYLNWFQQRPGQSPKRLMYQVSKLDPGIPDRFSGSGSETDFTLKISRVEAEDLGVYYCLQGTYTPQTFGGGTKLEIKR
notes: Mutation 1 as framework
B20: Mutation 1-43 (antibody, mouse IgG2b, kappa, V domains shown)
VH: EVQLQQSGPEVVKPGASVKISCKASGTTLTDYYMNWVKQSHGKGLEWIGDINPINGGTAYQQKFRDKATLTVDKSSNTAYMELRSLTSEDSALYYCTKGAEDYWGQGTTLTVSS
VL: DVVLTQTPLSLSVTIGQPASISCKSSQSILYSNGKIYLNWFQQRPGQSPKRLMYQISKLEPGIPDRFSGSGSETDFTLKISRVEAEDLGVYYCLQGTYSPQTFGGGTKLEIKR
notes: Mutation 1 as framework

For the assay, the target named is T1, Plasmodium falciparum histidine-rich …. In words: indirect ELISA, four antigen coating concentrations.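 Further: optical density read across an antibody dilution series at each antigen coating level, curves plotted on log scale, KD derived as reciprocal of the averaged constant.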 On the technique in general: ELISA stands for enzyme-linked immunosorbent assay.
Experimental: The OD values corresponding to different antibody concentrations with different coating concentrations are obtained. Under the same coating concentration, the antibody concentrations are used as an abscissa, the 00 values are used as an ordinate, and a logarithmic plot is made. […] An average value thereof is taken and a reciprocal thereof is calculated to get the affinity constant KD.
Regarding B1, the Kd amounted to 0.362 nM. This counts as sub-nanomolar.

Regarding B2, binding was put at a Kd of 0.125 nM. To B3 belongs 0.301 nM.

B4 gave a Kd of 0.465 nM. To B5 belongs 0.415 nM; to B6, 0.0903 nM. To B7 belongs 0.233 nM; to B8, 0.0645 nM; to B9, 0.105 nM.

Regarding B10, the Kd was 0.473 nM. Take B11: the Kd is 0.083 nM. This Kd lies about 5.7-fold lower than the previous one. Turning to B12, the affinity, expressed as Kd, was 0.0643 nM.

In turn, B13 yielded a Kd of 0.127 nM. Under B14 stands 0.0883 nM; under B15, 0.165 nM; under B16, 0.182 nM. For B17, the dissociation constant Kd came out at 0.179 nM. The molecule B18 registered a Kd of 0.126 nM. Under B19 stands 0.184 nM; under B20, 0.124 nM.

A word on the Kd: it is the free concentration of one partner at which half of the binding sites on the other are occupied at equilibrium, for simple one-to-one binding.
